Experimental data as given in patent publication US20240360242A1 (KISOJI BIOTECHNOLOGY, published 2024).

T1: recombinant human TROP2 extracellular domain (aa 1-274) comprising His tag (human, UniProt P09758 27-274)
T1 construct: Used here for all assays on recombinant human TROP2 (ELISA, immunoblot, SPR, crystal), although only some of them name the catalogue number; also called human recombinant TROP2; recombinant human TROP2 protein; not shown: His tag
T1 sequence: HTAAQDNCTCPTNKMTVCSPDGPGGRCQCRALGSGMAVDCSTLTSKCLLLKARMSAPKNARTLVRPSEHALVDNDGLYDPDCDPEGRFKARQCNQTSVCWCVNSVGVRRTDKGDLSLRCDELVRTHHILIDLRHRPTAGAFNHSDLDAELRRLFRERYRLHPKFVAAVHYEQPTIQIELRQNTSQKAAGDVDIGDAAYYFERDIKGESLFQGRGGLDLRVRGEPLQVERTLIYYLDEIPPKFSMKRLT

T2: recombinant cynomolgus/Rhesus TROP2 full-length extracellular domain (cynomolgus/Rhesus, UniProt P09758 27-274 (human entry))
T2 construct: also called cynomolgus TROP2
T2 chain: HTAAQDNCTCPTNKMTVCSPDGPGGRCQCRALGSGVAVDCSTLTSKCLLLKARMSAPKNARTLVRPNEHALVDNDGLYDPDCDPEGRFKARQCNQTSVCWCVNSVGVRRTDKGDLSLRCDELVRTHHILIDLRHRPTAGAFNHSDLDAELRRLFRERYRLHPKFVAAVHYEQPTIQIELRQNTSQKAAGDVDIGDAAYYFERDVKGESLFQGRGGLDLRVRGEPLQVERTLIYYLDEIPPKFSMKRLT


Tests used:
[1] = target: T1, recombinant human TROP2 extracellular …; assay: competitive ELISA on coated recombinant human TROP2, competitor KD002-His (14285.7 pM per text), anti-His-HRP
Description: The epitope characterization was assessed by competitive ELISA (FIG. 8 and FIG. 9). Microplates were coated with human recombinant TROP2 at 4° C. overnight. After washing, plates were blocked with blocking buffer (PBS+2% BSA), for 1 hour at room temperature. Meanwhile, the dilution for anti-TROP2 VHH sdAbs was prepared with blocking buffer making two different dilutions depending on the tag. For sdAbs with His tag, the antibody was diluted to 28571.4 pM. For sdAbs without tag, antibodies were serially diluted from 2857142.9 pM to 0.29 pM (8 dilutions, 10×). After that, equal volume of the his-tagged sdAbs and serial diluted non-tagged sdAbs were mixed, to make the final concentration of his-tagged sdAbs 14285.7 pM and non-tagged sdAbs from 1428571.4 pM to 0.14 pM. After washing two times, the mixed antibody contents were added into the wells and the plates were incubated for 2 hours at room temperature. The HRP-conjugated anti-6× His was diluted to 1:5000 and added to the wells after washing three times. Any unbound conjugate was removed by washing after 1 hour incubation at room temperature, and the colorimetric reaction was performed by adding the same volume of Supersignal ELISA Pico Luminol/Enhancer and SuperSignal ELISA Pico Stable Peroxide Solution and detected on SpectraMax i3x Microplate Reader. Positive and negative controls were included in each plate.

[2] = target: T2, recombinant cynomolgus/Rhesus TROP2 …; assay: ELISA on coated recombinant TROP2 ECD, 1:5 dilutions from 1000 nM, RLU
Description: (§1) TROP2 full-length extracellular domain recombinant proteins including cynomolgus/Rhesus (FIG. 12A), human (FIG. 12B), mouse (FIG. 12C), and rat (FIG. 12D) were coated on 96-well ELISA plates at the concentration of 1 μg/mL. Plates were covered with adhesive plate cover and stored at 4° C. overnight. The next day, plates were washed 3× with washing buffer (PBS with 0.1% Tween™ 20). Plates were blocked with 2% fat-free BSA in washing buffer for 1 hour at 37° C. During the incubation time, the anti-TROP2 sdAbs were diluted in the blocking buffer to the indicated concentrations. In brief, the anti-TROP2 sdAbs starting concentration was 1000 nM and serial diluted 1 in 5 to 0.02048 pM. After blocking, the blocking buffer was removed from the wells and 100 μL of anti-TROP2 sdAbs dilutions were transferred to the corresponding wells. Plates were covered with adhesive plates cover and incubated at 37° C. for 1 hour. During the primary antibody incubation, the secondary antibody (goat anti-human IgG, HRP conjugated) was diluted 1 in 5000 with the blocking buffer. Plates were washed 3× with blocking buffer, followed by secondary antibody incubation for another 1 hour at 37° C. After the secondary antibody incubation, plates were washed 3× with washing buffer and added with 100 μL of ELISA chemiluminescent substrate (Thermofisher). The luminescence signal was detected by SpectraMax i3x at […].

[3] = target: T1, recombinant human TROP2 extracellular …; assay: as above
Description: as §1

[4] = target: T2, recombinant cynomolgus/Rhesus TROP2 …; assay: SPR
[5] = target: T1, recombinant human TROP2 extracellular …; assay: SPR

Row | Binder | IC50 (read off the curve) [1] | EC50 (read off the curve) [2] | EC50 (read off the curve) [3] | Kd [4] | Kd [5]
1 | KD002 (antibody, human IgG1, V domains shown, also called anti-TROP2 sdAb KD002) VH: QVQLQESGGGMVQVGGSLRLSCAASGFPFSSADMSWVRQAPGKGPEWVSYINADGSKTYYPDSVKGRFTISRDNAKNTLYLLMNNLKPEDTALYRCARAKLTDTHYVEDYWGQGTQVTVSS | ~60 nM | ~0.2 nM | ~0.2 nM | 0.0811 nM | 0.0432 nM
2 | KD003 (antibody, human IgG1, V domains shown, also called anti-TROP2 sdAb KD003) VH: QVQLQESGGGMVQPGGSLRLSCAASGFTFSNYDMSWVRQAPGKGPEWVSYINAGGSNTDYPDSVKGRFTISRDNAKNMLYLLMNNLKPEDTALYRCARAKLTDTHYVEDYWGQGTQVTVSS | ~40 nM | ~0.2 nM | ~0.2 nM | 0.169 nM | 0.0893 nM
3 | KD001 (antibody, human IgG1, V domains shown, also called anti-TROP2 sdAb KD001) VH: QVQLQESGGGMVHPGGSLRLSCAASGFTFSGSDMSWVRQAPGKGPEWVSYITSGGTTYYPDSVKGRFTISRDNAKNTLYLQMNSLTPDDTALYRCAKARLTDSHYVEDAWGQGTQVTVSS | ~40 nM | ~0.2 nM | ~0.2 nM | 0.0257 nM | 0.0826 nM
4 | KD005 (antibody, human IgG1, V domains shown, also called anti-TROP2 sdAb KD005) VH: QVQLQESGGGLVEAGGSLRLSCAASGFTFSGSDMSWVRQAPGKGPEWVSYITSGGTTYYPDSVKGRFTISRDNAKNTLYLQMNSLKPDDTALYRCAKSRLTDSHYVEDAWGQGTQVTVSS | ~40 nM | ~0.2 nM | ~0.2 nM | 0.0597 nM | 0.0268 nM
5 | KD004 (antibody, human IgG1, V domains shown, also called anti-TROP2 sdAb KD004) VH: QVQLQESGGGLVQPGRSLRLSCAASGFTFSGSDMSWVRQAPGKGPEWVSYITGSGTTYYPDSVKGRFTTSRDNAKNMLYLQMNSLKPDDTALYRCAKARLTDSHYVEDAWGQGTQVTVSS | ~40 nM | ~0.2 nM | ~0.2 nM | 0.0358 nM | 0.0294 nM
